Measured values as given in US5736356A, “Transglutaminase originating from Crassostrea gigas” (Ajinomoto Co., Inc., priority 1994, dated 1998).
“Also recorded” adds a separate entry of the source. Like-named read-outs stand apart in the source and are kept apart here. Residues, ends and D or L forms follow the SMILES beside them. No end group written: not given here. *: point of attachment. Cbz = O=C(OCc1ccccc1)*

Columns and labels:
[1] = target: T1, purified transglutaminase originating from Crassostrea gigas (Magallana gigas, UniProt A0A8W8K4D7); assay type: biochemical; settings: synthetic substrate and hydroxylamine
T1 construct: Met-less mature form starts […]; recombinant enzyme from E. coli or yeast reported equivalent
Description: The inventors have investigated the enzyme activity of the purified transglutaminase using a variety of synthetic substrates and hydroxylamine.

[2] = target: T1, purified transglutaminase originating from Crassostrea gigas; assay type: biochemical; settings: final concentration 1 mM; for Residual Activity: treated at 25° C. for 10 minutes, reaction 37° C. 30 minutes
Procedure: (§1) The activity of the transglutaminase is determined by reacting the enzyme with dimethylated casein and monodansylcadaverine as substrates and measuring an increase in the fluorescent intensity of casein due to the incorporation of monodansylcadaverine into the dimethylated casein. The composition of the reaction solution is as follows:
(§2) To 2.4 ml of the foregoing reaction solution, there is added 20 to 50 μl of the transglutaminase solution followed by carrying out the reaction at 37° C. for 30 min, terminating the reaction by addition of 100 μl of a 500 mM EDTA solution and then determining the fluorescent intensity of the reaction solution (using a device: RF-1500 available from Shimadzu Corporation; excitation wavelength: 350 nm; wavelength of emitted fluorescent rays: 480 nm). In respect of the unit of the activity, that required for increasing the fluorescent intensity by 1.0 within one minute is herein defined to be one unit.
The purified transglutaminase was treated at a temperature of 25° C. for 10 minutes while adding each of a variety of enzyme activity-inhibitory agents and each metal ion in such an amount that the final concentration thereof was equal to 1 mM and then the reaction was carried out at a temperature of 37° C. for 30 minutes using dimethylated casein and monodansylcadaverine as substrates.

dimethylated casein [3] = target: dimethylated casein
dimethylated casein [4] = target: dimethylated casein; remark: listed apart in the source
casein = experiment: Control of gelation of casein solution by NaCl and CaCl2; assay type: biochemical; parameters: key to degree of gelation: -: the solution was still in the solution state; ±: the solution was a high viscosity product; +: the solution was a gelated product
Procedure: To an aqueous solution of casein (available from Sigma Company) having a protein concentration of 1% by weight, there was added NaCl in such an amount that the concentration thereof was 0, 0.1 or 0.3M, while variously changing the calcium chloride concentration within the range of from 0 to 200 mM to thus investigate the gelation of the protein. In this connection, the purified transglutaminase was added in an amount corresponding to 4.0 units per 1 mg of the protein. After carrying out the reaction at 37° C. for 90 minutes, the degree of gelation was evaluated.

[5] = test system: dimethylated casein and monodansylcadaverine; experiment: Transglutaminase activity of purification fractions (monodansylcadaverine incorporation into dimethylated casein, fluorescence); assay type: biochemical
Procedure: as §1, §2
Thus, the purified transglutaminase originating from Crassostrea gigas was obtained.

[6] = test system: dimethylated casein and monodansylcadaverine; experiment: Effect of NaCl and Ca2+ on enzyme activity; assay type: biochemical; settings: for effect of NaCl concentration on enzyme activity (in words): increasing NaCl concentration

Molecule: NC(=O)CC[C@H](NC(=O)OCc1ccccc1)C(=O)O [CBZ-Gln, benzyloxycarbonyl glutamine]
- enzyme activity with synthetic substrate (in words) [1]: did not catalyze the reaction
- enzyme activity with synthetic substrate (in words) ([1]; listed as benzyloxycarbonyl glutamine): did not show any enzyme activity

Molecule: CCOC(=O)CNC(=O)[C@H](CCC(N)=O)NC(=O)OCc1ccccc1 [CBZ-Gln-Gly-OEt] (Cbz-Gln-Gly-OEt)
- enzyme activity with synthetic substrate (in words) [1]: catalyzed the reaction

Molecule: [Mn+2] [Mn^2+]
- Residual Activity [2]: 84.7%

Molecule: TGase originated from Cavia porcellus (available from Takara Co., Ltd.) (from UniProt P08587) (enzyme)
- Increase in Fluorescent Intensity/Cultivation Temp. (increase in fluorescent intensity) (dimethylated casein [3]): 4.3

Molecule: CBZ-Gly- Gly-Gln-Gly: synthetic substrate, SEQ ID NO: 143 (Cbz-GGQG)
- enzyme activity with synthetic substrate (in words) [1]: catalyzed the reaction

Molecule: O=C(O)c1cc[c]([Hg][Cl])cc1 [p-Chloromercuribenzoic Acid]
- enzyme activity-inhibitory effect (in words) [2]: high enzyme activity-inhibitory effect; also recorded: inhibited
- Residual Activity [2]: 10.5%

Molecule: [Co+2] [Co^2+]
- enzyme activity-inhibitory effect (in words) [2]: strongly inhibited the enzyme activity
- Residual Activity [2]: 54.3%

Molecule: [Sr+2] [Sr^2+]
- enzyme activity-inhibitory effect (in words) [2]: almost no enzyme activity-inhibitory effect
- Residual Activity [2]: 93.8%

Molecule: [Cu+2] [Cu^2+]
- enzyme activity-inhibitory effect (in words) [2]: strongly inhibited the enzyme activity; also recorded: extremely high; also recorded: inhibited
- Residual Activity [2]: 8.8%

Molecule: O=S(=O)(F)Cc1ccccc1 [Phenylmethylsulfone Fluoride]
- enzyme activity-inhibitory effect (in words) [2]: almost no enzyme activity-inhibitory effect
- Residual Activity [2]: 96.4%

Molecule: [Mg+2] [Mg^2+]
- enzyme activity-inhibitory effect (in words) [2]: almost no enzyme activity-inhibitory effect
- Residual Activity [2]: 98.2%

Molecule: glycyl glutamyl glycine [Gly-Gln-Gly]
- enzyme activity with synthetic substrate (in words) [1]: did not catalyze the reaction
- enzyme activity with synthetic substrate (in words) ([1]; listed as glycyl glutamyl glycine): did not show any enzyme activity

Molecule: fusion protein of β-galactosidase and the TGase of Crassostrea gigas expressed by plasmid pCGTG4E (enzyme)
- Increase in Fluorescent Intensity/Cultivation Temp. (increase in fluorescent intensity) (dimethylated casein [3]): 12.8

Molecule: [Zn+2] [Zn^2+]
- Residual Activity [2]: 65.0%

Molecule: CCN1C(=O)C=CC1=O [N-Ethylmaleimide]
- enzyme activity-inhibitory effect (in words) [2]: high enzyme activity-inhibitory effect; also recorded: inhibited

Molecule: [Pb+2] [Pb^2+]
- enzyme activity-inhibitory effect (in words) [2]: strongly inhibited the enzyme activity
- Residual Activity [2]: 55.5%

Molecule: transglutaminase originating from Crassostrea gigas (purified from natural Crassostrea gigas) (enzyme)
- Specific Activity (unit/mg): incorporation of monodansylcadaverine into dimethylated casein, fluorescence (dimethylated casein [4]): 1400 unit/mg

Molecule: CBZ-Gln-Gln-Gly: synthetic substrate (Cbz-Gln-Gln-Gly)
- enzyme activity with synthetic substrate (in words) [1]: catalyzed the reaction

Molecule: O=C(O)CI [Monoiodoacetic Acid]
- enzyme activity-inhibitory effect (in words) [2]: high enzyme activity-inhibitory effect
- enzyme activity-inhibitory effect (in words) ([2]; listed as momoiodo acetic acid): inhibited

Molecule: [Ba+2] [Ba^2+]
- enzyme activity-inhibitory effect (in words) [2]: almost no enzyme activity-inhibitory effect
- Residual Activity [2]: 102%

Molecule: NC(=O)C[C@H](NC(=O)OCc1ccccc1)C(=O)NCC(=O)O [CBZ-Asn-Gly, benzyloxycarbonyl asparaginyl glycine] (Cbz-Asn-Gly-OH)
- enzyme activity with synthetic substrate (in words) [1]: did not catalyze the reaction
- enzyme activity with synthetic substrate (in words) ([1]; listed as benzyloxycarbonyl asparaginyl glycine): did not show any enzyme activity

Molecule: [Ni+2] [Ni^2+]
- Residual Activity [2]: 67.9%

Molecule: NC(=O)CC[C@H](NC(=O)OCc1ccccc1)C(=O)NCC(=O)O [CBZ-Gln-Gly, benzyloxycarbonyl glutaminyl glycine] (Cbz-Gln-Gly-OH)
- enzyme activity with synthetic substrate (in words) [1]: catalyzed the reaction
- enzyme activity with synthetic substrate (in words) ([1]; listed as benzyloxycarbonyl glutaminyl glycine): showed the enzyme activity

B1: purified transglutaminase: transglutaminase isolated and purified from Crassostrea gigas (Japanese oyster); Mono-Q active fraction (protein)
chain: AFWGVFYTIYSGIRRIAGQPPEEDTSDKEQKRSRTKKALGSEEEEGRISSLSDEDLRARNKVLEPKDEPSATLNVSSVDCQTKLNRKNHHTNEFEKAGNIYRRGQAFVIRVEFDREVNSDHDVILLQFTYGSRPQESKGTVIRIPLDLKPTTKTSDVTETWFAEVKNIAGKGLECAITSAPDSSIGEYRFYIETNLKDTDAVKRYEENESMIILFNAWAKEDTVYMDKEGERGEYVLNETGRVWTSRTWYGRPWNFGQFDDPVLDVALQLLLEGGLSDVACTSPVSVIRCLSSLCNSCDNNGVLAGRWTKEYPKDCTVPWKWTGSVAIIKEYHTNGNKPVRYGQCWVFSGLLTTMCRCLGIPTRSVTNFDSAHDTDSSMTIDSHWDEDGEPLEDMNDSVWNFHVWNESWFRRLDLPEGYDGWQAHDATPQEASEGIMRCGPAPLTAIKEGHVYLNFDIPFVFGEVNGDRVQWVVKKDGTMEVSQIDHSAVGHYISTKRMGSNDREDVTNLYKYPDGSEQERRVAKFVNRYSTRRKQNIYKLDTTKVLKFTVSPPDNTLIGDDMEIKVAVKNTADGPLKLHLTVSLVNAYYTGVAGSRVKTQTFEETIKAKDEKIVTMPVKGTEYHDGMNPEGRFQLYISGKNIDSGSMESTQISFVLKKPQLVIQVPQTIEAKEETEATIVFKNTTQLVLTQAEIAVEGSGLLAPQTIDISSPIKPGDEVKKTVVLRPRKPYYWGRELIATFTSKQIVDIETSADIKVIRQNKDNDSDSD
- degree of gelation (casein; NaCl 0 M, CaCl2 0 mM, 1% casein, 4.0 units/mg, 37° C. 90 min): -
- degree of gelation (casein; NaCl 0 M, CaCl2 10 mM): -
- degree of gelation (casein; NaCl 0 M, CaCl2 25 mM): -
- degree of gelation (casein; NaCl 0 M, CaCl2 50 mM): ±
- degree of gelation (casein; NaCl 0 M, CaCl2 100 mM): +
- degree of gelation (casein; NaCl 0 M, CaCl2 200 mM): +
- degree of gelation (casein; NaCl 0.1 M, CaCl2 0 mM): -
- degree of gelation (casein; NaCl 0.1 M, CaCl2 10 mM): -
- degree of gelation (casein; NaCl 0.1 M, CaCl2 25 mM): ±
- degree of gelation (casein; NaCl 0.1 M, CaCl2 50 mM): +
- degree of gelation (casein; NaCl 0.1 M, CaCl2 100 mM): +
- degree of gelation (casein; NaCl 0.1 M, CaCl2 200 mM): ±
- Ca2+ concentration at which the casein solution underwent gelation (casein; NaCl 0.3M): not less than 25 mM
- degree of gelation (casein; NaCl 0.3 M, CaCl2 0 mM): -
- degree of gelation (casein; NaCl 0.3 M, CaCl2 10 mM): ±
- degree of gelation (casein; NaCl 0.3 M, CaCl2 25 mM): +
- degree of gelation (casein; NaCl 0.3 M, CaCl2 50 mM): +
- degree of gelation (casein; NaCl 0.3 M, CaCl2 100 mM): +
- degree of gelation (casein; NaCl 0.3 M, CaCl2 200 mM): +
- Ca2+ concentration at which the casein solution underwent gelation (casein; free of NaCl): not less than 100 mM
- specific activity ([5]; Mono-Q active fraction): 1404 units/mg protein
- total activity ([5]; Mono-Q active fraction): 358 units
- specific activity ([5]; purification step, Table 1): 1404 unit/mg
- total activity ([5]; purification step, Table 1): 368 unit
- specific activity relative to that of the crude extract ([5]; purified solution vs crude extract): about 250 times
- effect of addition of KCl on enzyme activity (in words) [6]: improved
- maximum activity in the presence of NaCl relative to that in the absence [6]: about 2 times
- Ca2+ concentration at which the activity reached the highest level ([6]; in the absence of NaCl): about 100 mM
- Ca2+ concentration at which the activity reached the highest level ([6]; in the presence of NaCl (0.5M)): about 10 mM
- effect of NaCl concentration on enzyme activity (in words) [6]: increased as the NaCl concentration increased

B2: transglutaminase originating from a microorganism: TGase originating from a microorganism; probably the Streptoverticillium calcium-independent BTG (protein, UniProt P81453 77-407, looked up)
Protein-glutamine …: DSDDRVTPPAEPLDRMPDPYRPSYGRAETVVNNYIRKWQQVYSHRDGRKQQMTEEQREWLSYGCVGVTWVNSGQYPTNRLAFASFDEDRFKNELKNGRPRSGETRAEFEGRVAKESFDEEKGFQRAREVASVMNRALENAHDESAYLDNLKKELANGNDALRNEDARSPFYSALRNTPSFKERNGGNHDPSRMKAVIYSKHFWSGQDRSSSADKRKYGDPDAFRPAPGTGLVDMSRDRNIPRSPTSPGEGFVNFDYGWFGAQTEADADKTVWTHGNHYHAPNGSLGAMHVYESKFRNWSEGYSDFDRGAYVITFIPKSWNTAPDKVKQGWP
- effect of NaCl concentration on enzyme activity (in words) [6]: did not show any increase
